Source: patent US20240261333A1, “NOVEL TARGETS FOR ENHANCING ANTI-TUMOR IMMUNITY” (THE BROAD INSTITUTE, INC., priority 2021, published 2024)

T1: B3GNT2 (Homo sapiens, UniProt Q9NY97)
T1 construct: The respective ORFs of candidate genes [CD274 (NM_014143), MCL1 (NM_021960), JUNB (NM_002229), and B3GNT2 (NM_006577)] were synthesized; expressed in transfected cells; host or cells: A375 melanoma cells (lentiviral ORF overexpression)
T1 sequence (Q9NY97 1-397): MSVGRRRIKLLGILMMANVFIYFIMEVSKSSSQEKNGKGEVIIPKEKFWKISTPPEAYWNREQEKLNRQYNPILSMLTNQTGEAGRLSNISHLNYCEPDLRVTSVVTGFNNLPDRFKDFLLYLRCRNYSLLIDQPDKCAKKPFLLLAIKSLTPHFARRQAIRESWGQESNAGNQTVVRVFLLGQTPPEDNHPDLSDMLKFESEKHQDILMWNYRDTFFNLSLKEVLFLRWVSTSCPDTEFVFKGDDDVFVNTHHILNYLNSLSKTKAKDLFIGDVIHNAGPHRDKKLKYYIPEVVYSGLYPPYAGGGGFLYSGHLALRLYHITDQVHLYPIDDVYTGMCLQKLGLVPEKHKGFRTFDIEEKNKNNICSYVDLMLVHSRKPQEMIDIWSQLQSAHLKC


Target: T1, B3GNT2
Assay: Co-IP of FLAG-tagged B3GNT2 followed by mass spectrometry
Format: cell-based
Set-up: C-term IgG / C-term flag: unit not given here
How it was run: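 FLAG-tagged B3GNT2 immunoprecipitated from cell lysate (HEPES, 1% Triton X-100, 150 mM NaCl) with anti-FLAG versus […], overnight at 4° C, then captured on Protein A/G magnetic beads for 4 h. Two biological replicates per condition. Peptides fractionated and analyzed by nano-LC on an Orbitrap Elite in data-dependent mode.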

[1] = Co-IP followed by mass spectrometry of B3GNT2, C-term tag, FLAG pull-down
[2] = Co-IP followed by mass spectrometry of B3GNT2, C-term tag, IgG pull-down
[3] = Co-IP followed by mass spectrometry of B3GNT2, N-term tag, FLAG pull-down
[4] = Co-IP followed by mass spectrometry of B3GNT2, N-term tag, IgG pull-down

| Molecule | C-term flag [1] | C-term IgG [2] | N-term FLAG [3] | N-term IgG [4] | C-term flag (Co-IP with FLAG antibody, C-terminally FLAG-tagged B3GNT2, mass spectrometry count, unit not given) | N-term FLAG (Co-IP with FLAG antibody, N-terminally FLAG-tagged B3GNT2, mass spectrometry count, unit not given) | C-term IgG (Co-IP with IgG control antibody, C-terminally FLAG-tagged B3GNT2, mass spectrometry count, unit not given) | N-term IgG (Co-IP with IgG control antibody, N-terminally FLAG-tagged B3GNT2, mass spectrometry count, unit not given) |
| --- | --- | --- | --- | --- | --- | --- | --- | --- |
| C1orf68 (protein) MCDQQKQPQFPPSCVKGSGLGAGQGSNGASVKCPVPCQTQTVCVTGPAPCPTQTYVKYQVPCQTQTYVKCPAPCQRTYVKYPTPCQTYVKCPAPCQTTYVKCPTPCQTYVKCPAPCQMTYIKSPAPCQTQTCYVQGASPCQSYYVQAPASGSTSQYCVTDPCSAPCSTSYCCLAPRTFGVSPLRRWIQRPQNCNTGSSGCCENSGSSGCCGSGGCGCSCGCGSSGCCCLGIIPMRSRGPACCDHEDDCCC | 2 | 4 | 13 | 0 | – | – | – | – |
| CAT (protein) ADSRDPASDQMQHWKEQRAAQKADVLTTGAGNPVGDKLNVITVGPRGPLLVQDVVFTDEMAHFDRERIPERVVHAKGAGAFGYFEVTHDITKYSKAKVFEHIGKKTPIAVRFSTVAGESGSADTVRDPRGFAVKFYTEDGNWDLVGNNTPIFFIRDPILFPSFIHSQKRNPQTHLKDPDMVWDFWSLRPESLHQVSFLFSDRGIPDGHRHMNGYGSHTFKLVNANGEAVYCKFHYKTDQGIKNLSVEDAARLSQEDPDYGIRDLFNAIATGKYPSWTFYIQVMTFNQAETFPFNPFDLTKVWPHKDYPLIPVGKLVLNRNPVNYFAEVEQIAFDPSNMPPGIEASPDKMLQGRLFAYPDTHRHRLGPNYLHIPVNCPYRARVANYQRDGPMCMQDNQGGAPNYYPNSFGAPEQQPSALEHSIQYSGEVRRFNTANDDNVTQVRAFYVNVLNEEQRKRLCENIAGHLKDAQIFIQKKAVKNFTEVHPDYGSHIQALLDKYNAEKPKNAIHTFVQSGSHLAAREKANL | 0 | 3 | 6 | 2 | – | – | – | – |
| COPA (protein) MLTKFETKSARVKGLSFHPKRPWILTSLHNGVIQLWDYRMCTLIDKFDEHDGPVRGIDFHKQQPLFVSGGDDYKIKVWNYKLRRCLFTLLGHLDYIRTTFFHHEYPWILSASDDQTIRVWNWQSRTCVCVLTGHNHYVMCAQFHPTEDLVVSASLDQTVRVWDISGLRKKNLSPGAVESDVRGITGVDLFGTTDAVVKHVLEGHDRGVNWAAFHPTMPLIVSGADDRQVKIWRMNESKAWEVDTCRGHYNNVSCAVFHPRQELILSNSEDKSIRVWDMSKRTGVQTFRRDHDRFWVLAAHPNLNLFAAGHDGGMIVFKLERERPAYAVHGNMLHYVKDRFLRQLDFNSSKDVAVMQLRSGSKFPVFNMSYNPAENAVLLCTRASNLENSTYDLYTIPKDADSQNPDAPEGKRSSGLTAVWVARNRFAVLDRMHSLLIKNLKNEITKKVQVPNCDEIFYAGTGNLLLRDADSITLFDVQQKRTLASVKISKVKYVIWSADMSHVALLAKHAIVICNRKLDALCNIHENIRVKSGAWDESGVFIYTTSNHIKYAVTTGDHGIIRTLDLPIYVTRVKGNNVYCLDRECRPRVLTIDPTEFKFKLALINRKYDEVLHMVRNAKLVGQSIIAYLQKKGYPEVALHFVKDEKTRFSLALECGNIEIALEAAKALDDKNCWEKLGEVALLQGNHQIVEMCYQRTKNFDKLSFLYLITGNLEKLRKMMKIAEIRKDMSGHYQNALYLGDVSERVRILKNCGQKSLAYLTAATHGLDEEAESLKETFDPEKETIPDIDPNAKLLQPPAPIMPLDTNWPLLTVSKGFFEGTIASKGKGGALAADIDIDTVGTEGWGEDAELQLDEDGFVEATEGLGDDALGKGQEEGGGWDVEEDLELPPELDISPGAAGGAEDGFFVPPTKGTSPTQIWCNNSQLPVDHILAGSFETAMRLLHDQVGVIQFGPYKQLFLQTYARGRTTYQALPCLPSMYGYPNRNWKDAGLKNGVPAVGLKLNDLIQRLQLCYQLTTVGKFEEAVEKFRSILLSVPLLVVDNKQEIAEAQQLITICREYIVGLSVETERKKLPKETLEQQKRICEMAAYFTHSNLQPVHMILVLRTALNLFFKLKNFKTAATFARRLLELGPKPEVAQQTRKILSACEKNPTDAYQLNYDMHNPFDICAASYRPIYRGKPVEKCPLSGACYSPEFKGQICRVTTVTEIGKDVIGLRISPLQFR | 2 | 0 | 2 | 0 | – | – | – | – |

The next lines start with the values.

| C-term flag [1] | C-term IgG [2] | N-term FLAG [3] | N-term IgG [4] | C-term flag (Co-IP with FLAG antibody, C-terminally FLAG-tagged B3GNT2, mass spectrometry count, unit not given) | N-term FLAG (Co-IP with FLAG antibody, N-terminally FLAG-tagged B3GNT2, mass spectrometry count, unit not given) | C-term IgG (Co-IP with IgG control antibody, C-terminally FLAG-tagged B3GNT2, mass spectrometry count, unit not given) | N-term IgG (Co-IP with IgG control antibody, N-terminally FLAG-tagged B3GNT2, mass spectrometry count, unit not given) | Molecule |
| --- | --- | --- | --- | --- | --- | --- | --- | --- |
| 4 | 0 | 0 | 0 | – | – | – | – | TM9SF1 (protein) PGVEGVTHYKAGDPVILYVNKVGPYHNPQETYHYYQLPVCCPEKIRHKSLSLGEVLDGDRMAESLYEIRFRENVEKRILCHMQLSSAQVEQLRQAIEELYYFEFVVDDLPIRGFVGYMEESGFLPHSHKIGLWTHLDFHLEFHGDRIIFANVSVRDVKPHSLDGLRPDEFLGLTHTYSVRWSETSVERRSDRRRGDDGGFFPRTLEIHWLSIINSMVLVFLLVGFVAVILMRVLRNDLARYNLDEETTSAGSGDDFDQGDNGWKIIHTDVFRFPPYRGLLCAVLGVGAQFLALGTGIIVMALLGMFNVHRHGAINSAAILLYALTCCISGYVSSHFYRQIGGERWVWNIILTTSLFSVPFFLTWSVVNSVHWANGSTQALPATTILLLLTVWLLVGFPLTVIGGIFGKNNASPFDAPCRTKNIAREIPPQPWYKSTVIHMTVGGFLPFRYPPFIPWLLLSGS |
| 331 | 295 | 370 | 316 | – | – | – | – | KRT6B (protein) ASTSTTIRSHSSSRRGFSANSARLPGVSRSGFSSISVSRSRGSGGLGGACGGAGFGSRSLYGLGGSKRISIGGGSCAISGGYGSRAGGSYGFGGAGSGFGFGGGAGIGFGLGGGAGLAGGFGGPGFPVCPPGGIQEVTVNQSLLTPLNLQIDPAIQRVRAEEREQIKTLNNKFASFIDKVRFLEQQNKVLDTKWTLLQEQGTKTVRQNLEPLFEQYINNLRRQLDNIVGERGRLDSELRNMQDLVEDLKNKYEDEINKRTAAENEFVTLKKDVDAAYMNKVELQAKADTLTDEINFLRALYDAELSQMQTHISDTSVVLSMDNNRNLDLDSIIAEVKAQYEEIAQRSRAEAESWYQTKYEELQITAGRHGDDLRNTKQEIAEINRMIQRLRSEIDHVKKQCANLQAAIADAEQRGEMALKDAKNKLEGLEDALQKAKQDLARLLKEYQELMNVKLALDVEIATYRKLLEGEECRLNGEGVGQVNISVVQSTVSSGYGGASGVGSGLGLGGGSSYSYGSGLGVGGGFSSSSGRATGGGLSSVGGGSSTIKYTTTSSSSRKSYKH |
| – | – | – | – | 19 | 15 | 0 | 0 | SLC25A6 (protein) MTEQAISFAKDFLAGGIAAAISKTAVAPIERVKLLLQVQHASKQIAADKQYKGIVDCIVRIPKEQGVLSFWRGNLANVIRYFPTQALNFAFKDKYKQIFLGGVDKHTQFWRYFAGNLASGGAAGATSLCFVYPLDFARTRLAADVGKSGTEREFRGLGDCLVKITKSDGIRGLYQGFSVSVQGIIIYRAAYFGVYDTAKGMLPDPKNTHIVVSWMIAQTVTAVAGVVSYPFDTVRRRMMMQSGRKGADIMYTGTVDCWRKIFRDEGGKAFFKGAWSNVLRGMGGAFVLVLYDELKKVI |
| 2 | 0 | 3 | 4 | – | – | – | – | RBM14 (protein) MKIFVGNVDGADTTPEELAALFAPYGTVMSCAVMKQFAFVHMRENAGALRAIEALHGHELRPGRALVVEMSRPRPLNTWKIFVGNVSAACTSQELRSLFERRGRVIECDVVKDYAFVHMEKEADAKAAIAQLNGKEVKGKRINVELSTKGQKKGPGLAVQSGDKTKKPGAGDTAFPGTGGFSATFDYQQAFGNSTGGFDGQARQPTPPFFGRDRSPLRRSPPRASYVAPLTAQPATYRAQPSVSLGAAYRAQPSASLGVGYRTQPMTAQAASYRAQPSVSLGAPYRGQLASPSSQSAAASSLGPYGGAQPSASALSSYGGQAAAASSLNSYGAQGSSLASYGNQPSSYGAQAASSYGVRAAASSYNTQGAASSLGSYGAQAASYGAQSAASSLAYGAQAASYNAQPSASYNAQSAPYAAQQAASYSSQPAAYVAQPATAAAYASQPAAYAAQATTPMAGSYGAQPVVQTQLNSYGAQASMGLSGSYGAQSAAAATGSYGAAAAYGAQPSATLAAPYRTQSSASLAASYAAQQHPQAAASYRGQPGNAYDGAGQPSAAYLSMSQGAVANANSTPPPYERTRLSPPRASYDDPYKKAVAMSKRYGSDRRLAELSDYRRLSESQLSFRRSPTKSSLDYRRLPDAHSDYARYSGSYNDYLRAAQMHSGYQRRM |
| 6 | 5 | 6 | 5 | – | – | – | – | PUF60 (protein) MATATIALQVNGQQGGGSEPAAAAAVVAAGDKWKPPQGTDSIKMENGQSTAAKLGLPPLTPEQQEALQKAKKYAMEQSIKSVLVKQTIAHQQQQLTNLQMAAVTMGFGDPLSPLQSMAAQRQRALAIMCRVYVGSIYYELGEDTIRQAFAPFGPIKSIDMSWDSVTMKHKGFAFVEYEVPEAAQLALEQMNSVMLGGRNIKVGRPSNIGQAQPIIDQLAEEARAFNRIYVASVHQDLSDDDIKSVFEAFGKIKSCTLARDPTTGKHKGYGFIEYEKAQSSQDAVSSMNLFDLGGQYLRVGKAVTPPMPLLTPATPGGLPPAAAVAAAAATAKITAQEAVAGAAVLGTLGTPGLVSPALTLAQPLGTLPQAVMAAQAPGVITGVTPARPPIPVTIPSVGVVNPILASPPTLGLLEPKKEKEEEELFPESERPEMLSEQEHMSISGSSARHMVMQKLLRKQESTVMVLRNMVDPKDIDDDLEGEVTEECGKFGAVNRVIIYQEKQGEEEDAEIIVKIFVEFSIASETHKAIQALNGRWFAGRKVVAEVYDQERFDNSDLSA |
